The supplement of paper PMC10065799, “High-throughput profiling of sequence recognition by tyrosine kinases and SH2 domains using bacterial peptide display” (eLife, 2023)
Each block holds one sequence with its values, some of them ahead of it.

Experiments:
AncSZ = assay: phosphorylation enrichment, bacterial display (enrichment ratio); higher = better substrate or ligand; peptides without Tyr show the background
EPHB1 = EPHB1 (UniProt P54762); assay: as above
EPHB2 = EPHB2 (UniProt P29323); assay: as above
FGFR1 = FGFR1 (UniProt P11362); assay: as above
Chain of FGFR1 (P11362 whole entry, looked up): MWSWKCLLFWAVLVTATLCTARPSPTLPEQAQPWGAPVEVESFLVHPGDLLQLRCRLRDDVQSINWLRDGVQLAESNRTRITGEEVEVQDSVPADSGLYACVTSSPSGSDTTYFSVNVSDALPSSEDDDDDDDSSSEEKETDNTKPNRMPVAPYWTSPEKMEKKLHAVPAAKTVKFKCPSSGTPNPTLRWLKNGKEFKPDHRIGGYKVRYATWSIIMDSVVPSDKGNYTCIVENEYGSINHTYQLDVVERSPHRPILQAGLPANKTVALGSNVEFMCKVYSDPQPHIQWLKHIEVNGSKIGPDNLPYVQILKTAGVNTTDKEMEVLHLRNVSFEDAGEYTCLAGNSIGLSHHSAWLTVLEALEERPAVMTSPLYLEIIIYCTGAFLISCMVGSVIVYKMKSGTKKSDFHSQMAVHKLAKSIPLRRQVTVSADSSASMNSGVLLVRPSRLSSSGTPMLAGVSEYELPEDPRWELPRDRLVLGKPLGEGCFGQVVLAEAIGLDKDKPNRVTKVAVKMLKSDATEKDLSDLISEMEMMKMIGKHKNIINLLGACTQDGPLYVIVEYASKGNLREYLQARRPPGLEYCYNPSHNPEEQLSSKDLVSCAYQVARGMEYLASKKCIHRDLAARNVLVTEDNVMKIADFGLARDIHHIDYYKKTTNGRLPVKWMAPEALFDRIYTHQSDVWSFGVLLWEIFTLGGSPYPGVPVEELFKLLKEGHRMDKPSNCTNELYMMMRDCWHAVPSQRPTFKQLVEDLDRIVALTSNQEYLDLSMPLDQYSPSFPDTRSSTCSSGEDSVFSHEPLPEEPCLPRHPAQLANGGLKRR

FGFR3 = FGFR3 (UniProt P22607); assay: as above
Chain of FGFR3 (P22607 whole entry, looked up): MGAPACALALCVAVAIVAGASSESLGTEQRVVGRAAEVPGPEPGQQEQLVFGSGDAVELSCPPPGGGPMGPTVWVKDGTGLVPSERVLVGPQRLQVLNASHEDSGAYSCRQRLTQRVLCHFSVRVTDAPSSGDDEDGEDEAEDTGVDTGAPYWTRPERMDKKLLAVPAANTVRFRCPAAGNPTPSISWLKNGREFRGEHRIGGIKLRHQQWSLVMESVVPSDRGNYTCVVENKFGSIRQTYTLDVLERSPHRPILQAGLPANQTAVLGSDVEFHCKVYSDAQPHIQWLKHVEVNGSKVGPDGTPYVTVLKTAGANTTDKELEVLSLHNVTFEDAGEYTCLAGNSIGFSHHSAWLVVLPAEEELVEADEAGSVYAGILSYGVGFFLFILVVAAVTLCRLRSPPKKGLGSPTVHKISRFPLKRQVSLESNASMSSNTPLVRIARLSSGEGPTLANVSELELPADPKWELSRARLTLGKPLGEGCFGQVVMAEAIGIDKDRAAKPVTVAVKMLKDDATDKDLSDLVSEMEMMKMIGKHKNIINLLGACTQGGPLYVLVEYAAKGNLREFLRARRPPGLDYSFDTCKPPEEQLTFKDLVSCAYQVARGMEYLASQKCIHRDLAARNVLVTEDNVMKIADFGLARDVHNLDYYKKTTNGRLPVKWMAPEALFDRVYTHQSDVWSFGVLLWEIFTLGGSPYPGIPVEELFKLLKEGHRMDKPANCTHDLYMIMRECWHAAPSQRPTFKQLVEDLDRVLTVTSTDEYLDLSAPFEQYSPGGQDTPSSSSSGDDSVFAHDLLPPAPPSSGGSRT

Fer (mouse) = assay: as above
Fes = Fes (UniProt P07332); assay: as above
Chain of Fes (P07332 whole entry, looked up): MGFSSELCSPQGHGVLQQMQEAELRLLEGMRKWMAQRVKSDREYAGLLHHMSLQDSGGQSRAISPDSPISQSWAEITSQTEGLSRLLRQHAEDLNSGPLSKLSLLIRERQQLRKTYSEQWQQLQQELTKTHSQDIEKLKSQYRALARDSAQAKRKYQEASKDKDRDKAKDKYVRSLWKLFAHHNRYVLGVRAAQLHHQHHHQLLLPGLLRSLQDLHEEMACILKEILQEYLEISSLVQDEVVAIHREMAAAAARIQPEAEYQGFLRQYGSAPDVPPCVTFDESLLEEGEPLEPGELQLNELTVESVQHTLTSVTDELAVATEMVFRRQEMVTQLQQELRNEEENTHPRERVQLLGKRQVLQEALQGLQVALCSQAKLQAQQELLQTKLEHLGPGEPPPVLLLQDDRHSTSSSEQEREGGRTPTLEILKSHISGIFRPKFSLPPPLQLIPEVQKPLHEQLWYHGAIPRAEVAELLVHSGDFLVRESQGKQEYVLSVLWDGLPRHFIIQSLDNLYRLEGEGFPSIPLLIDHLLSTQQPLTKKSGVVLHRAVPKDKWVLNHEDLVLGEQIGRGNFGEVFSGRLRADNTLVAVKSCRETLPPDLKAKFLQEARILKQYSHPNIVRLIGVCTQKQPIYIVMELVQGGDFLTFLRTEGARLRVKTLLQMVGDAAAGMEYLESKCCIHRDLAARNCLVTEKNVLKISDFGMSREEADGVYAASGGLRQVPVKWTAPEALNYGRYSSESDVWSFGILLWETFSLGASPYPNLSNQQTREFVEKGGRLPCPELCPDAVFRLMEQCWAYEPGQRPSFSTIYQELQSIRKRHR

Fyn = Fyn (UniProt P06241); assay: as above
Chain of Fyn (P06241 whole entry, looked up): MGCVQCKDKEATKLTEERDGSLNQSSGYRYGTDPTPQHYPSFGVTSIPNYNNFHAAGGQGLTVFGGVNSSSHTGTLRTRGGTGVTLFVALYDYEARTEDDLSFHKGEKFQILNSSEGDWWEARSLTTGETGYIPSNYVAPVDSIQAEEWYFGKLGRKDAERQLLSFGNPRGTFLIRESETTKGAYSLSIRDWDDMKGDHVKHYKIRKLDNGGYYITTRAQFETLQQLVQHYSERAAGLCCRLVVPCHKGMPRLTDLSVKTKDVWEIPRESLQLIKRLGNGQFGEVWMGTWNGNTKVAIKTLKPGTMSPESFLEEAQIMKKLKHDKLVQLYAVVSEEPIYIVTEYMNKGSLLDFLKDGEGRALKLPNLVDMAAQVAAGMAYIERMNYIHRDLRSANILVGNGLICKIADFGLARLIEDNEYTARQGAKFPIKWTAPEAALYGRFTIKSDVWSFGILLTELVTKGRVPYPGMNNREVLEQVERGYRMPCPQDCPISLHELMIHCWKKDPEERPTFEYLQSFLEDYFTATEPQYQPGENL

Hck = Hck (UniProt P08631); assay: as above
Chain of Hck (P08631 whole entry, looked up): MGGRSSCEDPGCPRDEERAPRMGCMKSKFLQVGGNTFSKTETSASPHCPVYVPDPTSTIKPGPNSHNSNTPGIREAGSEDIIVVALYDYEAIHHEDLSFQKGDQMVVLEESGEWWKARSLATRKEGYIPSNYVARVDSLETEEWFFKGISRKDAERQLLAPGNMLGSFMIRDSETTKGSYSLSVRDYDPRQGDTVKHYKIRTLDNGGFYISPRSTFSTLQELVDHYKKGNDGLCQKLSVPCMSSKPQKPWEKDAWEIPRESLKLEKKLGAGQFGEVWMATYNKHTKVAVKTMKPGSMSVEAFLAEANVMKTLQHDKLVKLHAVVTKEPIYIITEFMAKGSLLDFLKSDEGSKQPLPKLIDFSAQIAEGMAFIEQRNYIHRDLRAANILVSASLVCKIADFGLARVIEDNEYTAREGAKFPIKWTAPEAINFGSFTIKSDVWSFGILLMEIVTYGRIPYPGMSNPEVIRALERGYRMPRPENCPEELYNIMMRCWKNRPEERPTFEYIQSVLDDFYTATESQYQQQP

Jak2 = Jak2 (UniProt O60674); assay: as above
Chain of Jak2 (O60674 whole entry, looked up): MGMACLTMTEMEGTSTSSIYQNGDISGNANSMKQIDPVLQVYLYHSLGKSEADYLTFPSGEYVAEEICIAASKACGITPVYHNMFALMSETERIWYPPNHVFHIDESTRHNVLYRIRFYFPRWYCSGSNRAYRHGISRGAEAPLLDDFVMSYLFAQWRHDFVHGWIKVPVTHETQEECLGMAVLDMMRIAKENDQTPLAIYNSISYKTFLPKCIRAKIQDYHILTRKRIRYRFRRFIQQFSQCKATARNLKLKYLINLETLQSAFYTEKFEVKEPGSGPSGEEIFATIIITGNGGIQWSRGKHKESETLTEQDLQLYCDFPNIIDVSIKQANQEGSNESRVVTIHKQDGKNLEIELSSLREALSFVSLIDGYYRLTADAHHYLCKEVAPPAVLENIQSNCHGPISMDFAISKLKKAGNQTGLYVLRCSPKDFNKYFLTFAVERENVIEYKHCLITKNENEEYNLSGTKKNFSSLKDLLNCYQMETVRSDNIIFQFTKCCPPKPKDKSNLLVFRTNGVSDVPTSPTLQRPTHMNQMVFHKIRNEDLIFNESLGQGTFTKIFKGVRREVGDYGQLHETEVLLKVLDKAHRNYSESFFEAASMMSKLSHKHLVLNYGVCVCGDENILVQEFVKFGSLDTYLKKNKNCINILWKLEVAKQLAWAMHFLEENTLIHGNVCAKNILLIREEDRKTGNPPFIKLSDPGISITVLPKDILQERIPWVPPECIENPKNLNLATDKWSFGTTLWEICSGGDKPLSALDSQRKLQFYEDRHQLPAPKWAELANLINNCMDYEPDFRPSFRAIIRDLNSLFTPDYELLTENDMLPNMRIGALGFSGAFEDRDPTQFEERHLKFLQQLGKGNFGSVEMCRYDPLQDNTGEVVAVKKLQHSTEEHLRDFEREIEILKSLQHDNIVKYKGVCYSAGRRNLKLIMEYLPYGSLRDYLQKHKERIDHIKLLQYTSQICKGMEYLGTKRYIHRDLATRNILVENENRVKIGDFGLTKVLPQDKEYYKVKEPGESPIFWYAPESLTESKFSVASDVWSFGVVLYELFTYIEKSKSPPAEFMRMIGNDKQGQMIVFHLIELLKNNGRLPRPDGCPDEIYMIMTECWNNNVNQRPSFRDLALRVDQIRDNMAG

MERTK = MERTK (UniProt Q12866); assay: as above
c-Abl (mouse) = assay: as above
c-Src = assay: as above
Grb2 SH2 = Grb2 SH2 (UniProt P62993); assay: SH2 binding enrichment of the phosphorylated peptide, bacterial display (enrichment ratio); higher = better substrate or ligand; peptides without Tyr show the background
SHP2-C SH2 = assay: as above
c-Src SH2 = assay: as above
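For SH2 binding enrichment of the phosphorylated peptide, bacterial display in this document: peptide library displayed on the E. coli surface as eCPX fusions, selected cells deep-sequenced, score is each peptide's frequency after selection divided by its frequency in the input.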
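For phosphorylation enrichment, bacterial display in this document: 11-residue human phosphosite peptides and single-mutation variants displayed on the E. coli surface, counted by deep sequencing, each peptide's frequency after selection divided by its frequency in the unselected input library; frequency after pTyr selection over input frequency; kinase dosed for 20-30% of maximal phosphorylation in three min.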

SH2 binding enrichment (Grb2 SH2): 0.982 | SH2 binding enrichment (SHP2-C SH2): 1.11 | SH2 binding enrichment (c-Src SH2): 0.796
Sequence: YIRKDYEACKA [BBS4_Y48]
phosphorylation enrichment (AncSZ): 0.553 | phosphorylation enrichment (EPHB1): 0.469 | phosphorylation enrichment (EPHB2): 0.398 | phosphorylation enrichment (FGFR1): 0.466 | phosphorylation enrichment (FGFR3): 0.38 | phosphorylation enrichment (Fer (mouse)): 0.403 | phosphorylation enrichment (Fes): 0.464 | phosphorylation enrichment (Fyn): 0.445 | phosphorylation enrichment (Hck): 0.404 | phosphorylation enrichment (Jak2): 0.407 | phosphorylation enrichment (MERTK): 0.398 | phosphorylation enrichment (c-Abl (mouse)): 0.374 | phosphorylation enrichment (c-Src): 0.386

SH2 binding enrichment (Grb2 SH2): 0.911 | SH2 binding enrichment (SHP2-C SH2): 1.04 | SH2 binding enrichment (c-Src SH2): 1.21
Sequence: YPPDGYSRHYE [CTNND1_Y213]
phosphorylation enrichment (AncSZ): 0.561 | phosphorylation enrichment (EPHB1): 0.388 | phosphorylation enrichment (EPHB2): 0.394 | phosphorylation enrichment (FGFR1): 0.451 | phosphorylation enrichment (FGFR3): 0.548 | phosphorylation enrichment (Fer (mouse)): 0.354 | phosphorylation enrichment (Fes): 0.655 | phosphorylation enrichment (Fyn): 0.348 | phosphorylation enrichment (Hck): 0.414 | phosphorylation enrichment (Jak2): 0.534 | phosphorylation enrichment (MERTK): 0.395 | phosphorylation enrichment (c-Abl (mouse)): 0.355 | phosphorylation enrichment (c-Src): 0.354

SH2 binding enrichment (Grb2 SH2): 0.79 | SH2 binding enrichment (SHP2-C SH2): 0.715 | SH2 binding enrichment (c-Src SH2): 0.46
Sequence: YRKNTYNVKST [SYNE2_Y575_I574T]
phosphorylation enrichment (AncSZ): 0.415 | phosphorylation enrichment (EPHB1): 0.351 | phosphorylation enrichment (EPHB2): 0.296 | phosphorylation enrichment (FGFR1): 0.334 | phosphorylation enrichment (FGFR3): 0.361 | phosphorylation enrichment (Fer (mouse)): 0.327 | phosphorylation enrichment (Fes): 0.465 | phosphorylation enrichment (Fyn): 0.344 | phosphorylation enrichment (Hck): 0.346 | phosphorylation enrichment (Jak2): 0.393 | phosphorylation enrichment (MERTK): 0.316 | phosphorylation enrichment (c-Abl (mouse)): 0.351 | phosphorylation enrichment (c-Src): 0.398

SH2 binding enrichment (Grb2 SH2): 0.742 | SH2 binding enrichment (SHP2-C SH2): 0.562 | SH2 binding enrichment (c-Src SH2): 0.547
Sequence: YRRITYYNWRH [PDE6B_Y556_H557Y]
phosphorylation enrichment (AncSZ): 0.64 | phosphorylation enrichment (EPHB1): 0.417 | phosphorylation enrichment (EPHB2): 0.457 | phosphorylation enrichment (FGFR1): 0.497 | phosphorylation enrichment (FGFR3): 0.598 | phosphorylation enrichment (Fer (mouse)): 0.442 | phosphorylation enrichment (Fes): 0.549 | phosphorylation enrichment (Fyn): 0.483 | phosphorylation enrichment (Hck): 0.46 | phosphorylation enrichment (Jak2): 0.47 | phosphorylation enrichment (MERTK): 0.512 | phosphorylation enrichment (c-Abl (mouse)): 0.539 | phosphorylation enrichment (c-Src): 0.47

SH2 binding enrichment (Grb2 SH2): 0.798 | SH2 binding enrichment (SHP2-C SH2): 0.506 | SH2 binding enrichment (c-Src SH2): 0.615
Sequence: YSGDCYRIQGR [DDR2_Y741_Y740C]
phosphorylation enrichment (AncSZ): 0.818 | phosphorylation enrichment (EPHB1): 0.468 | phosphorylation enrichment (EPHB2): 0.514 | phosphorylation enrichment (FGFR1): 0.483 | phosphorylation enrichment (FGFR3): 0.715 | phosphorylation enrichment (Fer (mouse)): 0.49 | phosphorylation enrichment (Fes): 0.83 | phosphorylation enrichment (Fyn): 0.475 | phosphorylation enrichment (Hck): 0.564 | phosphorylation enrichment (Jak2): 0.735 | phosphorylation enrichment (MERTK): 1.25 | phosphorylation enrichment (c-Abl (mouse)): 0.552 | phosphorylation enrichment (c-Src): 0.374

SH2 binding enrichment (Grb2 SH2): 0.832 | SH2 binding enrichment (SHP2-C SH2): 0.753 | SH2 binding enrichment (c-Src SH2): 1.44
Sequence: YSIDYYRVGGH [NTRK2_Y707_T704I]
phosphorylation enrichment (AncSZ): 1.65 | phosphorylation enrichment (EPHB1): 1.52 | phosphorylation enrichment (EPHB2): 0.86 | phosphorylation enrichment (FGFR1): 12.5 | phosphorylation enrichment (FGFR3): 9.07 | phosphorylation enrichment (Fer (mouse)): 0.514 | phosphorylation enrichment (Fes): 0.916 | phosphorylation enrichment (Fyn): 1.31 | phosphorylation enrichment (Hck): 1.78 | phosphorylation enrichment (Jak2): 6.54 | phosphorylation enrichment (MERTK): 8.42 | phosphorylation enrichment (c-Abl (mouse)): 0.494 | phosphorylation enrichment (c-Src): 2.15

Sequence: YSTDYYRVGGH [NTRK2_Y707]
phosphorylation enrichment (AncSZ): 2.31 | phosphorylation enrichment (EPHB1): 5.71 | phosphorylation enrichment (EPHB2): 3.5 | phosphorylation enrichment (FGFR1): 14.2 | phosphorylation enrichment (FGFR3): 11.1 | phosphorylation enrichment (Fer (mouse)): 0.44 | phosphorylation enrichment (Fes): 0.732 | phosphorylation enrichment (Fyn): 1.68 | phosphorylation enrichment (Hck): 2.55 | phosphorylation enrichment (Jak2): 8.96 | phosphorylation enrichment (MERTK): 9.44 | phosphorylation enrichment (c-Abl (mouse)): 1.03 | phosphorylation enrichment (c-Src): 2.22 | SH2 binding enrichment (Grb2 SH2): 0.787 | SH2 binding enrichment (SHP2-C SH2): 0.922 | SH2 binding enrichment (c-Src SH2): 0.691

SH2 binding enrichment (Grb2 SH2): 1.11 | SH2 binding enrichment (SHP2-C SH2): 0.721 | SH2 binding enrichment (c-Src SH2): 0.769
Sequence: YVKEPYIQSRF [HIPK4_Y175]
phosphorylation enrichment (AncSZ): 0.628 | phosphorylation enrichment (EPHB1): 0.406 | phosphorylation enrichment (EPHB2): 0.465 | phosphorylation enrichment (FGFR1): 0.491 | phosphorylation enrichment (FGFR3): 0.528 | phosphorylation enrichment (Fer (mouse)): 0.411 | phosphorylation enrichment (Fes): 0.77 | phosphorylation enrichment (Fyn): 0.469 | phosphorylation enrichment (Hck): 0.416 | phosphorylation enrichment (Jak2): 0.507 | phosphorylation enrichment (MERTK): 0.53 | phosphorylation enrichment (c-Abl (mouse)): 0.457 | phosphorylation enrichment (c-Src): 0.329
